Test results reported in US20240116985A1 (published 2024).
Values belong to the binder of their own block, whether it stands above or below them. Starred links: 1 amine or outer side, 2 acyl side, 3 side chain; linkers in the order of their positions; H or OH if unused. Positions of bridges follow the written chain, without caps; N, C: chain ends. Non-standard residues stand in square brackets, D forms with d. Primed or numbered codes have the meaning given here. PyrS2(3) = (S)-3-amino-1-((pent-4-en-1-yloxy)carbonyl)pyrrolidine-3-carboxylic acid, stapling residue, C=CCCCOC(=O)N1CC[C@@](N[*:1])(C(=O)[*:2])C1; PyrS2″ = (S)-3-amino-1-((pent-4-en-1-yloxy)carbonyl)pyrrolidine-3-carboxylic acid (stapling residue), C=CCCCOC(=O)N1CC[C@@](N[*:1])(C(=O)[*:2])C1; B5(4) = 2,2-bis(4-pentenyl)glycine = 2-amino-2-(pent-4-en-1-yl)hept-6-enoic acid (stitching residue), C=CCCCC(CCCC=C)(N[*:1])C(=O)[*:2]; B5(20) = 2-amino-2-(pent-4-en-1-yl)hept-6-enoic acid = bis(4-pentenyl)glycine, stitching residue, C=CCCCC(CCCC=C)(N[*:1])C(=O)[*:2]; SdN = (S)-4-(((allyloxy)carbonyl)(methyl)amino)-2-amino-2-methylbutanoic acid, C=CCOC(=O)N(C)CC[C@](C)(N[*:1])C(=O)[*:2]; Phe(2-Cl) = N[C@@H](Cc1ccccc1Cl)C(=O)O; Phe(3-F) = N[C@@H](Cc1cccc(F)c1)C(=O)O; Bta = N[C@@H](Cc1csc2ccccc12)C(=O)O; αAllylPro = C=CC[C@@]1(C(=O)O)CCCN1; tBuAla = CC(C)(C)C[C@H](N)C(=O)O; Cha = N[C@@H](CC1CCCCC1)C(=O)O; S8 = C=CCCCCCC[C@](C)(N)C(=O)O; Thr(ol) = C[C@@H](O)[C@H](N)CO; R5 = C=CCCC[C@@](C)(N)C(=O)O

Columns and labels:
B-cat-Halo = biological target: T1, B-cat-Halo (UniProt P35222 1-781); assay: cell-based or functional assay
T1 sequence (looked up): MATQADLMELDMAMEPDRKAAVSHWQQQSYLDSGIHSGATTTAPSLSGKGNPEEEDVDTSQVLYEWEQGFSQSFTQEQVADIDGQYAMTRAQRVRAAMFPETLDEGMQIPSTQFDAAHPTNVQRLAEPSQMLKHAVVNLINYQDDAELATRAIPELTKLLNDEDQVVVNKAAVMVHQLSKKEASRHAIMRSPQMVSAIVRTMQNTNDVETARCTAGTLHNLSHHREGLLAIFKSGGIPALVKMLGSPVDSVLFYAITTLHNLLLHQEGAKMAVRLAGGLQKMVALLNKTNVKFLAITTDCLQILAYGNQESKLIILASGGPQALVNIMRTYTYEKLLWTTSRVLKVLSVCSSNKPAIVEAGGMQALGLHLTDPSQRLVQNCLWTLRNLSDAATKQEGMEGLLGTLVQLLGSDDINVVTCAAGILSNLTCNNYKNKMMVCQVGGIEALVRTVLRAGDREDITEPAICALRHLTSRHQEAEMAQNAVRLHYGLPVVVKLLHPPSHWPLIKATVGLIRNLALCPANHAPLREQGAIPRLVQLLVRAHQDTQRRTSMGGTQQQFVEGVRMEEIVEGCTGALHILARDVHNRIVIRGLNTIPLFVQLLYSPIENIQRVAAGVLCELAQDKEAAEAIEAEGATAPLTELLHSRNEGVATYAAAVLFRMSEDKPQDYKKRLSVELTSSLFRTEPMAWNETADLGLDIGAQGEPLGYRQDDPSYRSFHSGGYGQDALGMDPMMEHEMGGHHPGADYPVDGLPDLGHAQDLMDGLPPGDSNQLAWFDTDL

[1] = biological target: T2, full-length beta-Catenin (Uniprot ID P35222) (Homo sapiens (Human), UniProt P35222 1-781); assay: fluorescence polarization competition; full-length beta-catenin; competitor 5FAM-TCF4(10-53) probe
T2 construct: also called bCat
T2 sequence: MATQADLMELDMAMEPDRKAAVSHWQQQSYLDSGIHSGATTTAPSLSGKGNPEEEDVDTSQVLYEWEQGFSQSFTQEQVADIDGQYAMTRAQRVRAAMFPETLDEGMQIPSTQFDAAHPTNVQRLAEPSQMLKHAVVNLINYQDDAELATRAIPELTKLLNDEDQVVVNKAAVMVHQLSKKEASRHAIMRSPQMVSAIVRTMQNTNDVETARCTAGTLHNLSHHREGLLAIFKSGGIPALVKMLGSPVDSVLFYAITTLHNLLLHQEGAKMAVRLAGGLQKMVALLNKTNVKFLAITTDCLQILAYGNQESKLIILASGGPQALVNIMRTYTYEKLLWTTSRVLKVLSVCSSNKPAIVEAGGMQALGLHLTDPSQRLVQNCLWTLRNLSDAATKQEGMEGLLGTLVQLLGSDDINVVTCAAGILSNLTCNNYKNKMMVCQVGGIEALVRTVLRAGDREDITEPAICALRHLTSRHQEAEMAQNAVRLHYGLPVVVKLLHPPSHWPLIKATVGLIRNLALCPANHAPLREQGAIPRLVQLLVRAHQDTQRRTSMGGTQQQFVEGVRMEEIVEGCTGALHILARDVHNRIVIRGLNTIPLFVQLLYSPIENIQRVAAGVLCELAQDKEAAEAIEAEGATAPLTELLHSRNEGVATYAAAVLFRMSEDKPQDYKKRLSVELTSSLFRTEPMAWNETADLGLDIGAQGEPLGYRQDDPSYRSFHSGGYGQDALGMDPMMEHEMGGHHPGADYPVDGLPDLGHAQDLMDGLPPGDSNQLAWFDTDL
Description: (§1) The plate was incubated protected from light for 60 minutes at 20° C. prior to read. Reads were performed on a CLARIOstar plate reader (BMG Labtech) in duplicate, and data were fitted to a 1:1 binding model with hill slope using an in-house script. All provided concentrations are final concentrations.

[2] = biological target: T3, full-length beta-Catenin (Uniprot ID P35222) (Homo sapiens (Human), UniProt P35222 2-781); assay: AlphaScreen competition; full-length beta-catenin, biotin-TCF4(10-53) probe
T3 construct: Used full-length in both the FP and the AlphaScreen assay; also called B-Catenin; bCat
T3 sequence: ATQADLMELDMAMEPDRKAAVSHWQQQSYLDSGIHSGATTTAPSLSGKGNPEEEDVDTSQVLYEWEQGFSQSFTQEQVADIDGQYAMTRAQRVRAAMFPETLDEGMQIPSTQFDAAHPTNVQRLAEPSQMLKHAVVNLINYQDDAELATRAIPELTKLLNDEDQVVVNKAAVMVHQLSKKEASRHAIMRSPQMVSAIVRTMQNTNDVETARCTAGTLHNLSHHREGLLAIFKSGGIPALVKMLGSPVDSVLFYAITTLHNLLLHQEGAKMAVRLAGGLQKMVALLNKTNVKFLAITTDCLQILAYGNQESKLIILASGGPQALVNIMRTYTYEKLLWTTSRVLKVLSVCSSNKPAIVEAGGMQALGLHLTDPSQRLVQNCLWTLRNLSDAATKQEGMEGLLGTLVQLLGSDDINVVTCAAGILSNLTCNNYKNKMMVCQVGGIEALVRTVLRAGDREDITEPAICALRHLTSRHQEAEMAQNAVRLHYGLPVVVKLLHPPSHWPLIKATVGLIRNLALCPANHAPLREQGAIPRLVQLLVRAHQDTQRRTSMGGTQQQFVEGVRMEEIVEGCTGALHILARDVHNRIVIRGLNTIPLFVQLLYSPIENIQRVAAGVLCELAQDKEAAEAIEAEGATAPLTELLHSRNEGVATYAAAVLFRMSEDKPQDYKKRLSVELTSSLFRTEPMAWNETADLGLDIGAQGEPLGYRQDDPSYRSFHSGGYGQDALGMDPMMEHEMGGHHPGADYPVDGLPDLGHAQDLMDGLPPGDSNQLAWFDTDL
Description: as §1, with “Equal volume of the titrated peptide was added to the” for “The”, “and” for “was”, “incubated for 15 minutes at 20° C. Then 4 uL of donor and 4 uL acceptor beads at 10 ug/mL were added to the plate, for a 16 uL reaction pool and” for “incubated”

[3] = biological target: T3, full-length beta-Catenin (Uniprot ID …); assay: fluorescence polarization competition; full-length beta-catenin, 5FAM-TCF4(10-53) probe
Description: as §1

[4] = biological target: T4, beta-Catenin (full-length, Uniprot ID P35222) (Homo sapiens (Human), UniProt P35222 1-781); assay: fluorescence polarization competition: peptide titrated against 10 nM full-length beta-catenin + 10 nM 5FAM-labeled TCF4 residues 10-53 probe
T4 construct: also called bCat; B-Catenin
T4 sequence: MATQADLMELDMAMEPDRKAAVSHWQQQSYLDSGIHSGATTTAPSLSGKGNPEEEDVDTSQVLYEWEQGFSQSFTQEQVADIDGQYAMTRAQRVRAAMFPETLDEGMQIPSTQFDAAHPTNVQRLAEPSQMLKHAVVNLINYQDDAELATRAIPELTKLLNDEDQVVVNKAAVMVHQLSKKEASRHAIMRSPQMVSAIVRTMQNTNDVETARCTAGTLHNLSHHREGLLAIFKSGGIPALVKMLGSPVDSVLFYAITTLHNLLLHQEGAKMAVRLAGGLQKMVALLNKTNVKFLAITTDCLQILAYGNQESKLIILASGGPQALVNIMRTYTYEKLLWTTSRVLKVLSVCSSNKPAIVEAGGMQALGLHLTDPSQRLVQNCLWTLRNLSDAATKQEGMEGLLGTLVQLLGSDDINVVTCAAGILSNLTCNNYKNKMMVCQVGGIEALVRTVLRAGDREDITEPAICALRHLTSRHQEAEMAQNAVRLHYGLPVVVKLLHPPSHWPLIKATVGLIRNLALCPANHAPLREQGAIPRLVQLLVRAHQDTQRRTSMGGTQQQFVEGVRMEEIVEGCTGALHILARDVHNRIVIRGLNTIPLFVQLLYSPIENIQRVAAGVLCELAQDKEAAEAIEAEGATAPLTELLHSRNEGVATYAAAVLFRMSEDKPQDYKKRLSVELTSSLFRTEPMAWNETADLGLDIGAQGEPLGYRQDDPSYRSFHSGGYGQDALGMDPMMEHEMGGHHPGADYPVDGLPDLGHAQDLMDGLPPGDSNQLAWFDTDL
Description: as §1

- NanoBRET Abs IC50 (uM); B-cat-Halo / TCF4-Luc in HEK293 cells (B-cat-Halo): 20.6 µM
B1: I-1311 (peptide)
peptide: Ac-[αAllylPro]D[tBuAla][B5(4)]DDAAFF[PyrS2″][Phe(2-Cl)][Bta][Thr(ol)]
modifications: staple 1-4, 4-11

- EC50 [1]: 0.176 µM
B2: I-1184 (peptide)
peptide: Ac-PD[Cha][R5]DDAAFT[PyrS2(3)][Phe(2-Cl)][Bta]S-NH2
modifications: staple 4-11
notes: stapled peptide (single staple)

- NanoBRET Abs IC50 (uM); B-cat-Halo / TCF4-Luc in HEK293 cells (B-cat-Halo): 11.9 µM
B6: I-1308 (peptide)
peptide: Ac-[αAllylPro]D[tBuAla][B5(4)]DDAAFT[S8][Phe(2-Cl)][Bta][Thr(ol)]
modifications: staple 1-4, 4-11

Second part, the binder before the results:

B3: I-55 (peptide)
peptide: Ac-[αAllylPro]DA[B5(4)]DDAAFV[SdN]FWQ-NH2
modifications: staple 1-4, 4-11
notes: Stapled (stitched) peptide; also called Ac-PL3-Asp-Ala-B5-Asp-Asp-Ala-Ala-Phe-Val-SdN-Phe-Trp-Gln-NH2
- EC50 [2]: 2.38 µM
- EC50 [3]: 5 µM

B4: I-262: Ac-PL3-Asp-Ala-B5-Asp-Asp-Ala-Ala-Phe-Val-S8-34FF-Trp-Gln-NH2 (peptide)
peptide: XDAXDDAAFVXFWQ
modifications: not fully specified; N-terminal Ac; PL3 at position 1; B5 at position 4; S8 at position 11; 34FF at position 12; C-terminal NH2; stapled by olefin metathesis (PL3-B5 and B5-S8)
notes: It is the earlier-eluting isomer composition
- IC50 [4]: 5 µM

B5: I-260: Ac-PL3-Asp-Ala-B5-Asp-Asp-Ala-Ala-Phe-Val-S8-3FF-Trp-Gln-NH2 (peptide)
peptide: Ac-[αAllylPro]DA[B5(4)]DDAAFV[S8][Phe(3-F)]WQ-NH2
modifications: staple 1-4, 4-11
notes: Stapled peptide
- IC50 [4]: 5 µM

B7: I-52 (peptide)
peptide: Ac-[αAllylPro]DA[B5(20)]DDAAFV[S8]FWQ-NH2
modifications: staple 1-4, 4-11
notes: Stapled (stitched) peptide; also called Ac-PL3-Asp-Ala-B5-Asp-Asp-Ala-Ala-Phe-Val-S8-Phe-Trp-Gln-NH2
- EC50 [2]: 0.158 µM
- EC50 [3]: 3.2 µM
